Molecular target: receptor binding domain (RBD) of the SARS-CoV-2 S protein (SARS-CoV-2, UniProt P0DTC2)
Experiment: ELISA

B1: recombinant fragment of human surfactant protein D (rfhSP-D) (domain or fragment)
chain: PGLKGDKGIPGDKGAKGESGLPDVASLRQQVEALQGQVQHLQAAFSQYKKVELFPNGQSVGEKIFKTAGFVKPFTEAQLLCTQAGGQLASPRSAAENAALQQLVVAKNEAAFLSMTDSKTEGKFTYPTGESLVYSNWAPGEPNDDGGSEDCVEIFTNGKWNDRACGEKRLVVCEF
- percent decrease of RBD-hACE-2 interaction (rfhSP-D increased 8-fold): ~25%

From article doi:10.1101/2020.12.18.423415 (bioRxiv, 2020)
